Consider one molecule from US20210388331A1 (NEURO BIO, published 2021).

In this test the target is T1, α7 nicotinic-receptor (in rat brain slices / rat brain membranes) (rat, UniProt Q05941 23-502).
T1 construct: whole, on cells; also called α7 receptor; alpha-7 nicotinic acetylcholine receptor
As to the kind of experiment: [3H] ivermectin displacement, rat brain membranes (told in the legend of FIG. 6 only).

T1 sequence (Q05941 23-502): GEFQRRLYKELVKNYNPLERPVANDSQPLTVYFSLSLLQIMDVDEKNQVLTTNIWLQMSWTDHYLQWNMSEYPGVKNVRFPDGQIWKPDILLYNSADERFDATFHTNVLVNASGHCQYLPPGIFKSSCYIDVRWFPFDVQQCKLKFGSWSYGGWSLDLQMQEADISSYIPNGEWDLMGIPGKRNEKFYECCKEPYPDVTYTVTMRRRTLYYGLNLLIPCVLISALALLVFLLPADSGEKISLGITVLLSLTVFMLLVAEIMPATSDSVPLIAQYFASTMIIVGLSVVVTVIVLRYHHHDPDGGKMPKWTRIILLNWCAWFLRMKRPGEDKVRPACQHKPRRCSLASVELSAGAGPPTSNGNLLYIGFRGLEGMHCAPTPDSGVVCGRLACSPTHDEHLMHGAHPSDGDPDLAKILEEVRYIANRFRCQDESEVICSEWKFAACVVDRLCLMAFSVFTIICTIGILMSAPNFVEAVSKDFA

With AEFHRWSSYMVHWK (also called linear T14) [T14 (AChE C-terminal peptide, linear)], the binding result is on record as “binds”.
